From PMC10978961, “Architecture and activation of human muscle phosphorylase kinase” (Nature Communications, 2024)

Biological target: the molecule itself
Test: cryo-EM structure; inactive PhK holoenzyme, dephosphorylated, with 4 mM EGTA and excess calmodulin; 25 mM HEPES pH 6.8, 150 mM NaCl, 2 mM DTT; subunits co-expressed and purified as a complex

B1: human muscle phosphorylase kinase (PhK) β-subunit (natural protein, UniProt Q93100 1-1093, looked up)
chain: MAGAAGLTAEVSWKVLERRARTKRSGSVYEPLKSINLPRPDNETLWDKLDHYYRIVKSTLLLYQSPTTGLFPTKTCGGDQKAKIQDSLYCAAGAWALALAYRRIDDDKGRTHELEHSAIKCMRGILYCYMRQADKVQQFKQDPRPTTCLHSVFNVHTGDELLSYEEYGHLQINAVSLYLLYLVEMISSGLQIIYNTDEVSFIQNLVFCVERVYRVPDFGVWERGSKYNNGSTELHSSSVGLAKAALEAINGFNLFGNQGCSWSVIFVDLDAHNRNRQTLCSLLPRESRSHNTDAALLPCISYPAFALDDEVLFSQTLDKVVRKLKGKYGFKRFLRDGYRTSLEDPNRCYYKPAEIKLFDGIECEFPIFFLYMMIDGVFRGNPKQVQEYQDLLTPVLHHTTEGYPVVPKYYYVPADFVEYEKNNPGSQKRFPSNCGRDGKLFLWGQALYIIAKLLADELISPKDIDPVQRYVPLKDQRNVSMRFSNQGPLENDLVVHVALIAESQRLQVFLNTYGIQTQTPQQVEPIQIWPQQELVKAYLQLGINEKLGLSGRPDRPIGCLGTSKIYRILGKTVVCYPIIFDLSDFYMSQDVFLLIDDIKNALQFIKQYWKMHGRPLFLVLIREDNIRGSRFNPILDMLAALKKGIIGGVKVHVDRLQTLISGAVVEQLDFLRISDTEELPEFKSFEELEPPKHSKVKRQSSTPSAPELGQQPDVNISEWKDKPTHEILQKLNDCSCLASQAILLGILLKREGPNFITKEGTVSDHIERVYRRAGSQKLWLAVRYGAAFTQKFSSSIAPHITTFLVHGKQVTLGAFGHEEEVISNPLSPRVIQNIIYYKCNTHDEREAVIQQELVIHIGWIISNNPELFSGMLKIRIGWIIHAMEYELQIRGGDKPALDLYQLSPSEVKQLLLDILQPQQNGRCWLNRRQIDGSLNRTPTGFYDRVWQILERTPNGIIVAGKHLPQQPTLSDMTMYEMNFSLLVEDTLGNIDQPQYRQIVVELLMVVSIVLERNPELEFQDKVDLDRLVKEAFNEFQKDQSRLKEIEKQDDMTSFYNTPPLGKRGTCSYLTKAVMNLLLEGEVKPNNDDPCLIS
modifications: farnesyl group on Cys1090 (mass spectrometry; density in the cryo-EM maps); treated with λ-phosphatase
notes: phosphorylase kinase β-subunit, human, full length; domains D1-D5; Forms the central β4 homotetramer of the hexadecamer
stoichiometry N: 4
